Primed or numbered codes have the meaning given here. Where no end group is shown, it is not given here. FITC′ = fluorescein isothiocyanate
Target: T1, Full‐length Saccharomyces cerevisiae Pex5 (purified, for fluorescence anisotropy) (Saccharomyces cerevisiae, UniProt P35056 1-612)
T1 construct: Pex5, peroxisomal targeting factor (PTS1 receptor), Saccharomyces cerevisiae, full length; also called purified yeast Pex5; source: expressed in autoinduction medium, purified (Ni‐NTA, TEV digestion, second Ni‐NTA, gel filtration Superdex 200)
T1 sequence (looked up): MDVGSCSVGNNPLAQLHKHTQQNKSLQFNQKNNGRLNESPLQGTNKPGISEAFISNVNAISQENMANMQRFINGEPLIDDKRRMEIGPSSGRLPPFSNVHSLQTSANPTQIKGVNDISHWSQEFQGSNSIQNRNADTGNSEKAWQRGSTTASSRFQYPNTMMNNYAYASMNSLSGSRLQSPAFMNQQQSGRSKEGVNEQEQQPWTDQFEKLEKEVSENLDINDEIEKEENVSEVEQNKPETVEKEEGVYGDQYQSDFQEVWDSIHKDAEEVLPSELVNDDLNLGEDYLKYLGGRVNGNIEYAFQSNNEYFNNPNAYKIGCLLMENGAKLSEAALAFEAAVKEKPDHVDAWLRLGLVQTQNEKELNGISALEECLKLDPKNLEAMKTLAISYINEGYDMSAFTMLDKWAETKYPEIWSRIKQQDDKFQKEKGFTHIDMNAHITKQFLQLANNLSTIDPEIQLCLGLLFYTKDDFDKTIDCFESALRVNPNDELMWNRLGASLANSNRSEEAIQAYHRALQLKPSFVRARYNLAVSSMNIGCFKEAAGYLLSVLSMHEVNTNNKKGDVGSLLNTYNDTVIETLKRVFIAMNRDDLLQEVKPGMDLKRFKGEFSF
Test: fluorescence polarisation; fluorescence anisotropy; FITC peptide at 10 nM, Pex5 in serial dilution; 50 mM Hepes pH 7.5, 150 mM NaCl; black 96-well plates, excitation/detection 470/530 nm; three independent experiments; binding-saturation model with one binding site
Details: both partners purified

Row | Binder | Kd
1 | {FITC′}-RKRVLGVAYL (Yhl045w (Pxp3, Peroxisomal protein 3), Saccharomyces cerevisiae, the carboxyl-terminal 10 amino acids; also called Pxp3 motif; Pxp3 targeting peptide; source: synthetic peptide (Genscript)) [FITC-labeled peptide of the carboxyl‐terminal 10 amino acids of Yhl045w (Pxp3)] | 9.5 ± 2.9 µM
2 | {FITC′}-YEDKKGMCKL (tyrosine added at the N terminal of the Idp3 peptide for concentration determination; not part of Idp3; Idp3, Saccharomyces cerevisiae, carboxyl terminus with the PTS1 motif; also called PTS1 motif from Idp3; source: synthetic peptide (Genscript)) [FITC-labeled peptide of the carboxyl terminus of Idp3 (known PTS1 motif)] | 5.5 ± 0.5 µM

Source: PMC9513677, “Systematic multi‐level analysis of an organelle proteome reveals new peroxisomal functions” (Molecular Systems Biology, 2022)
